Source: patent US20240026031A1 (University of California, published 2024)
Changes are numbered by the printed parent chain. Numbers in names are those of the source.

Key:
RNF43 [1] = molecular target: T1, RNF43 (UniProt Q68DV7 24-197, limits assumed); assay: affinity for RNF43; method and format not stated; WT anti-RNF43 A5
T1 sequence (looked up): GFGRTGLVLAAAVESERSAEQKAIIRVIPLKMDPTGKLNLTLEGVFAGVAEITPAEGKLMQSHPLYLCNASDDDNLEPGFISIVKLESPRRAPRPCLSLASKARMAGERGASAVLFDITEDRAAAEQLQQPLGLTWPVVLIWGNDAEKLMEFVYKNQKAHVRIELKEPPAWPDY

RNF43 [2] = molecular target: T1, RNF43; assay: affinity for RNF43; method and format not stated; F115A mutant of CDR H3
RNF43 [3] = molecular target: T1, RNF43; assay: affinity for RNF43; method and format not stated; S113A mutant of CDR H3

B1: anti-RNF43 A5 (WT RNF43 binder) (Fab, V domains shown)
VH: EVQLVESGGGLVQPGGSLRLSCAASGFNIYYYSMHWVRQAPGKGLEWVASISPYYSYTSYADSVKGRFTISADTSKNTAYLQMNSLRAEDTAVYYCARYGYYGWDYHRYSAFDYWGQGTLVTVSS
VL: DIQMTQSPSSLSASVGDRVTITCRASQSVGSALAWYQQKPGKAPKLLIYSASSLYSGVPSRFSGSRSGTDFTLTISSLQPEDFATYYCQQAYPITFGQGTKVEIKR
notes: also called WT RNF43 A5; clone anti-RNF43 A5
Kd (RNF43 [1]): 12.5 nM

B2: anti-RNF43 A5 alanine mutant F115A (CDR H3) (Fab, V domains shown)
VH: B1 VH with F112A
VL: B1 VL
Kd (RNF43 [2]): 125 nM

B3: anti-RNF43 A5 alanine mutant S113A (CDR H3) (Fab, V domains shown)
VH: B1 VH with S110A
VL: B1 VL
notes: also called 40 nM
Kd (RNF43 [3]): 40 nM
